Results on 34 variants are retold here after the RNAGym collection of RNA variant scans (doi:10.1093/nar/gkz1192).

B1: CPEB3 Ribozyme (parent)
chain: UAACAGGGGGCCACAGCAGAAGCGUUCACGUCGCAGCCCCUGUCAGAUUCUGGUGAAUCUGCGAAUUCUGCUGUAUAUCUC

In the data set the parent is B1. Description: self-cleavage, relative activity (ratio to wild type); higher = more cleavage; in vitro, sequencing. The method, boiled down: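 Barcoded CPEB3 ribozyme mutants, produced by rounds of error-prone PCR, self-cleaved while being transcribed with T7 RNA polymerase for 5 hours at 37°C and during a subsequent 15 min DNase I step before EDTA was added. Sequencing of template-switched cDNA on Illumina gave cleaved and total reads, and DNA sequencing assigned barcodes to variants. Each variant's relative activity is its cleaved/total read fraction divided by the unmutated ribozyme's fraction, averaged across three batches. A variant needed a minimum of 5 reads.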
Turning to UAACAGGGGGACACAGCAGAAGCGUUCACGUCGCAGCCCCUGUCAGAUUCUGGUGAAUCUGCGAAUUCUGCUCUAUAUCUC [C11A G73C], the self-cleavage came out at 0.87.

Turning to UAACAGGGGGCCAUAGCAGAAGCGUCCACGUCGCAGCCCCUGUCAGAUUCUGGUGAAUCUGCGAAUUCUGCUGUAUAUCUC [C14U U26C], the self-cleavage worked out at 0.66.

Consider UAACAGGGGGCCACAGCAGAAGCGUUCACGUCGCAGCCCCUGUCCGAUUCUGGUGAAUCUGCGAUUUCUGCUGUAUAUCUC [A45C A65U], for which the self-cleavage is 0.12.

For UGACAGGGGGCCACAGCAGAAGCGUUCACGUCGCAGCCCCUGUCAGAUUCUGGUGAAUCUGCGAAUUCUGCUGAAUAUCUC [A2G U74A], the self-cleavage was found to be 1.07.

On to UAACAGGGGGCCACAGCAGAAGCGUUCACGUCGCAGCCCCUGUCAGAUUCUGGUGAUUCUGCGAAUUCUGCUGUAUAUCUC [A57U], for which the self-cleavage was found to be 0.8.

With UAACAGGGGGCCACAGCAGAAGCGUUCACGUCGCAGCCCCUGUCAGAUUAUGGUGAAUCUGCGAAUUCAGCUGUAUAUCUC [C50A U69A], the self-cleavage came out at 0.42.

As to UAACAGGGGGCCACAGCAGAAGCGUUCACGUCGCAGCCCCUGGCAGAUUCUGGUGAAUCUGCGAAUUCUGCAGUAUAUCUC [U43G U72A], the self-cleavage is 0.1.

Turning to UAACAGGGGGCCACAGCAGAAGCGUUCACGUCGCAGCCCCUGUCAGAUUCUGGUGAGUCUGCGAAUUCUGCUGGAUAUCUC [A57G U74G], the self-cleavage worked out at 1.23.

Consider UAACAGGGGGCCACAGCAGAAGCGUUCACGUCGCAGCCCCGGUCAGAUUCUGGUGAAUCUGCGAAUUCUGCUGUAUUUCUC [U41G A77U], for which the self-cleavage came out at 0.36.

In the case of UAAUAGGGGGCCACAGCAGAAGCGUUCACGUCGCAGCCCCUAUCAGAUUCUGGUGAAUCUGCGAAUUCUGCUGUAUAUCUC [C4U G42A], the self-cleavage stood at 0.32.

For UAACAGGGGGCCACAGCAGAAGCGUUCACGUCGCAGCCCCUGCCAGACUCUGGUGAAUCUGCGAAUUCUGCUGUAUAUCUC [U43C U48C], the self-cleavage is 0.25.

In the case of UAACAGGGGGCCACAGCUGAAGCGUUCACGUCGCAGCCCCUGUCAGAUUCUGGUGAAGCUGCGAAUUCUGCUGUAUAUCUC [A18U U58G], the self-cleavage was 0.03.

UAACAGGGGGCCACAGCAGAAGCGUUCACGUCGCAGCCCCUGUCAGAUUCUGGUGAAUCUGCGAAUUCUUCUGUAUAUCUC [G70U]: the self-cleavage came out at 0.37.

As for UAACAGGAGGCCACAGCAGAAGCGUUCACGUCGCAGCCCCUGUCAGAUUCUGGUGAAUAUGCGAAUUCUGCUGUAUAUCUC [G8A C59A], the self-cleavage came out at 0.06.

Regarding UAACAGGGGGCCACAGCAUAAGCGUUCACGUCGCAGCCCCUGUCAGAUUCUGGUGUAUCUGCGAAUUCUGCUGUAUAUCUC [G19U A56U], the self-cleavage turned out to be 0.14.

Consider UAACAGGGGGGCACAGCAGAAGCGUUCACGUCGCAGCCCCUGUCAGGUUCUGGUGAAUCUGCGAAUUCUGCUGUAUAUCUC [C11G A47G], for which the self-cleavage came to 0.61.

Turning to UGACAGGGGGCGACAGCAGAAGCGUUCACGUCGCAGCCCCUGUCAGAUUCUGGUGAAUCUGCGAAUUCUGCUGUAUAUCUC [A2G C12G], the self-cleavage is 0.38.

UAACAGGGGGCCACAGCAGAAGCGUUCACGUCACAGCCCGUGUCAGAUUCUGGUGAAUCUGCGAAUUCUGCUGUAUAUCUC [G33A C40G]: the self-cleavage came out at 0.2.

Regarding UAACAGGGGGCCACAGCAGAAGCGUUCACGUCGCAGCCCCUGUCAGAUUCUGGUGAAUCUGCGAAUGCUCCUGUAUAUCUC [U67G G70C], the self-cleavage amounted to 0.21.

For UACCAGGGGGCCACAGUAGAAGCGUUCACGUCGCAGCCCCUGUCAGAUUCUGGUGAAUCUGCGAAUUCUGCUGUAUAUCUC [A3C C17U], the self-cleavage is 0.54.

Consider UAACAGGGGGCCACAGCAGAAGCGAUCACGUCGCAGCCCCUGCCAGAUUCUGGUGAAUCUGCGAAUUCUGCUGUAUAUCUC [U25A U43C], for which the self-cleavage was 0.28.

Regarding UAACAGGGGGCCGCAGCAGAAGCGUUCACGUCGCAGCCCCUGUCAGAUUCUGGUGAAUCUGCGAAUUCUGCUGUAUUUCUC [A13G A77U], the self-cleavage was determined as 0.92.

With UAACAGGGGGCCACAGCAGAAGCGUUCACGUCGCAGCCCCAGUCAGAUUCUGGUGAAUCAGCGAAUUCUGCUGUAUAUCUC [U41A U60A], the self-cleavage turned out to be 0.25.

Regarding UAACAGGGGGCCACAGCGGAAGCGUUCACGUCGCAGCCCCUGUCAGAUUCUGGUGAAUCUGCGAAUUCUGCCGUAUAUCUC [A18G U72C], the self-cleavage amounted to 0.68.

Consider UUACAGGGGGCCACAGCAGAUGCGUUCACGUCGCAGCCCCUGUCAGAUUCUGGUGAAUCUGCGAAUUCUGCUGUAUAUCUC [A2U A21U], for which the self-cleavage came to 0.29.

Consider UAACAGGGGGCCAUAGCAGAAGCGUUCACGUCGCAGCCCUUGUCAGAUUCUGGUGAAUCUGCGAAUUCUGCUGUAUAUCUC [C14U C40U], for which the self-cleavage was 1.07.

Consider UAACAGGGGGCCACAGCAGAAGCGUUCACGUCGCAGCCCCUGUCAGAUUCUGGUGAAUCUGCGAAUUCUGCUGCACAUCUC [U74C U76C], for which the self-cleavage stood at 1.2.

Regarding UAACAGGGGGCCACAGCAGAAGCGUUCACGUCGCAGCCCCUGUCAGACUCUGGGGAAUCUGCGAAUUCUGCUGUAUAUCUC [U48C U54G], the self-cleavage was determined as 0.38.

With UAACAGGGGGCCACAGCAGAAGCGUUCACGUCGCAGCCCCUGGCAGAUUCUGGUGAAUCUGCGAAUUCUGCUGGAUAUCUC [U43G U74G], the self-cleavage was determined as 0.36.

As for UAACAGGGGGCCACAGCAGAUGCGUUCACGUAGCAGCCCCUGUCAGAUUCUGGUGAAUCUGCGAAUUCUGCUGUAUAUCUC [A21U C32A], the self-cleavage was 0.14.

For the variant UAACAGGGGGCCACAGCAGAAGCGAUCACGUCGCAGCCCCUGUCAGAUUCUGGUGAAUCUGCGAAUUCUGCUGUAUAUCUU [U25A C81U], the self-cleavage was 0.57.

Regarding UAACAGGGGGCCACAGCAGAAGCGUUCGCGUCGCAGCCCCUGUCAGAUUCCGGUGAAUCUGCGAAUUCUGCUGUAUAUCUC [A28G U51C], the self-cleavage stood at 0.62.

In the case of UAACAGGGGGCCACAGAAGAAGCGUUCACGUCGCAGCCCCUGUCAGAUUCUGGUGAAUCUGCGAAUUCUGCGGUAUAUCUC [C17A U72G], the self-cleavage is 0.16.

As for UAACAGGGGGCCACAGCAGAAGCGUUCACGUCGCAGCCCCAGUCAGAUUCUGGUGAAUCUGCGAAUUCUGCUGUAUAUCGC [U41A U80G], the self-cleavage came out at 0.41.
